Experimental data reported in patent publication US20200317768A1 (published 2020).

Tests used:
Test in all cases: SPR (BIACORE), antibody captured, FcgR analyte
[1] = target: T1, cynomolgus monkey FcγRIIa2 extracellular domain with C-terminal His-tag (cynomolgus monkey)
T1 construct: also called cyno FcgRIIa2; cynoFcγRIIa2
T1 chain: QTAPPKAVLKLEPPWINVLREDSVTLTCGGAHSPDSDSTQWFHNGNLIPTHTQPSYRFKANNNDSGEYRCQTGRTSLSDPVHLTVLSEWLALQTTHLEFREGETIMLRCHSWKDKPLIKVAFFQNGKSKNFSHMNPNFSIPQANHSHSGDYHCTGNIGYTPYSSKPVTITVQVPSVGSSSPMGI
Procedure: (§1) The kinetic analysis of interactions between these antibodies and FcγR was carried out using BIACORE® T200 or BIACORE® 4000 (GE Healthcare). HBS-EP+ (GE Healthcare) was used as the running buffer, and the measurement temperature was set to 25° C. A chip produced by immobilizing Protein A. Protein A/G or mouse anti-human IgG kappa light chain (BD Biosciences) onto a Series S Sensor Chip CM4 or CM5 (GE Healthcare) by the amine-coupling method was used. […] After the measurement, the antibody captured on the chip was washed off by allowing reaction with 10 mM glycine-HCl, pH1.5 and 25 mM NaOH so that the chip was regenerated and used repeatedly. The sensorgrams obtained as measurement results were analyzed by the 1:1 Langmuir binding model using the BIACORE® Evaluation Software to calculate the binding rate constant ka (L/mol/s) and dissociation rate constant kd (l/s), and the dissociation constant KD (mol/L) was calculated from these values. […] Regarding such interactions, KD values were calculated using the following 1:1 binding model described in BIACORE® T100 Software Handbook BR1006-48 Edition AE.
(§2) The behavior of interacting molecules according to the 1:1 binding model on BIACORE® can be described by Equation 1: Req=C·R max/(KD+C)+RI, wherein, Req is a plot of steady-state binding levels to analyte concentration. C is concentration, RI is bulk refractive index contribution in the sample, and Rmax is analyte binding capacity of the surface. When this equation is rearranged, KD can be expressed as Equation 2: KD=C·Rmax/(Req−RI)−C. KD can be calculated by substituting the values of Rmax, RI, and C into Equation 1 or Equation 2. From the current measurement conditions, RI=0, C=2 μmol/L can be used.

[2] = target: T2, cynomolgus monkey FcγRIIa3 extracellular domain with C-terminal His-tag (cynomolgus monkey)
T2 construct: also called cyno FcgRIIa3; cynoFcγRIIa3
T2 chain: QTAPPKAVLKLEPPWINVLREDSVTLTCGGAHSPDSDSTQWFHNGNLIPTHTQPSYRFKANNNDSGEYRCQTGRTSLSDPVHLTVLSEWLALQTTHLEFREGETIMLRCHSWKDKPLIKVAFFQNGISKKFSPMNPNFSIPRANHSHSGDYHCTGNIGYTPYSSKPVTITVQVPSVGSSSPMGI
Procedure: as §1, §2

[3] = target: T3, cynomolgus monkey FcγRIIb extracellular domain with C-terminal His-tag (cynomolgus monkey)
T3 construct: also called cyno FcgRIIb; cynoFcγRIIb
T3 chain: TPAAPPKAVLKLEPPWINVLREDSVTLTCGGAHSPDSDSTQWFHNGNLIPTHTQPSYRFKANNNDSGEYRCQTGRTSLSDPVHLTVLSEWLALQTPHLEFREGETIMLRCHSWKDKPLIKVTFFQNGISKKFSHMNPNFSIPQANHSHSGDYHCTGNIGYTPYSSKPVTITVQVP
Procedure: as §1, §2

[4] = target: T4, cynomolgus monkey FcγRIIIaS extracellular domain with C-terminal His-tag (cynomolgus monkey, UniProt Q8SPW2 21-206 at identity 1.00))
T4 construct: also called cyno FcgRIIIaS; cynoFcγRIIIaS
T4 chain: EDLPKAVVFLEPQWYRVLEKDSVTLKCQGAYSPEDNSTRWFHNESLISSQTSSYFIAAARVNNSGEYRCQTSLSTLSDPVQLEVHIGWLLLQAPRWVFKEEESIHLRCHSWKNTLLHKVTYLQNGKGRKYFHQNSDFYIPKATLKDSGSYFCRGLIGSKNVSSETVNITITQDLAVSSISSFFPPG
Procedure: as §1, §2

[5] = target: T5, human FcγRIIaH extracellular domain with C-terminal His-tag (human, UniProt P12318 34-217)
T5 construct: also called human FcgRIIaH; FcγRIIa (type H)
T5 sequence: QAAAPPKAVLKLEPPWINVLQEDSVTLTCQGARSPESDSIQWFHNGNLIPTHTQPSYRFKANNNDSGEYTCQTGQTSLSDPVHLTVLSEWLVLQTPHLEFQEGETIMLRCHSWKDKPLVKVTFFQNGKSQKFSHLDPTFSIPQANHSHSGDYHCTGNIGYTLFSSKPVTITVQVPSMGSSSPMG
Procedure: as §1, §2

[6] = target: T6, human FcγRIIaR extracellular domain with C-terminal His-tag (human, UniProt P12318 34-217)
T6 construct: also called human FcgRIIaR; FcγRIIa (type R)
T6 chain: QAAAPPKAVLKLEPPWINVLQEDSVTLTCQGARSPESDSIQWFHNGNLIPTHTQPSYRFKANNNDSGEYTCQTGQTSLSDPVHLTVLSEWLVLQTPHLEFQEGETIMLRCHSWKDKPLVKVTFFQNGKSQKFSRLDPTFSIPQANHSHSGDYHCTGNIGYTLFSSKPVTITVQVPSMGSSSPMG
Procedure: as §1, §2

[7] = target: T7, human FcγRIIb extracellular domain with C-terminal His-tag (human, UniProt P31994 43-217)
T7 construct: also called human FcgRIIb
T7 sequence: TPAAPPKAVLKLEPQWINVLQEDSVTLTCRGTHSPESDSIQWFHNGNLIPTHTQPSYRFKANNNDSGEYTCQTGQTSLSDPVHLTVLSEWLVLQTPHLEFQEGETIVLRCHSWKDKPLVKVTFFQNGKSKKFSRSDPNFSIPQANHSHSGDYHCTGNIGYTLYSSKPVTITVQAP
Procedure: as §1, §2

[8] = target: T8, human FcγRIIIaV extracellular domain with C-terminal His-tag (human, UniProt P08637 17-208)
T8 construct: also called human FcgRIIIaV
T8 sequence (P08637 17-208 F176V): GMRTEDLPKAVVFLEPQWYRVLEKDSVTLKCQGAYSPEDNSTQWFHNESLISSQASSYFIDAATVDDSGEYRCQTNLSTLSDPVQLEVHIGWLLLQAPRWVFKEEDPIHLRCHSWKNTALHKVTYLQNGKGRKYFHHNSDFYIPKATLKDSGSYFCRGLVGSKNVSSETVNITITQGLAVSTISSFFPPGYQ
Procedure: as §1, §2

B1: MS_M103205H795-SG1/M103202L889-SK1 (antibody, human IgG1, kappa)
heavy: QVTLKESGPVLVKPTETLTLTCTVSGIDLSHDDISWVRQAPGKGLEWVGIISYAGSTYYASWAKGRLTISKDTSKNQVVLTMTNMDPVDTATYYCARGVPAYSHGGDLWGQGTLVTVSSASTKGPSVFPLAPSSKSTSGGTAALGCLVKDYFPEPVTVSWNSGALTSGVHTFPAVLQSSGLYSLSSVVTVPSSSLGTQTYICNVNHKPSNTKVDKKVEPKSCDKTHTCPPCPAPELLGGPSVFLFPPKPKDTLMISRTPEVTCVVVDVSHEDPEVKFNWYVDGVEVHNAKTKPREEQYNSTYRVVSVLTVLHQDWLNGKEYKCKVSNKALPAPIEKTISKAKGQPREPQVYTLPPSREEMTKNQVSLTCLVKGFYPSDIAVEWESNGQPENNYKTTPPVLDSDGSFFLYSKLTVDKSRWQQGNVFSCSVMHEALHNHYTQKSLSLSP
light: DIVMTQSPATLSLSPGERATLSCTSSQSVYHANWLSWFQQKPGQPPKLLIYWASTLAYGVPSRFSGSGSGTDFTLTISSLQPEDAATYYCAGGYGGGRYAFGQGTKVEIKRTVAAPSVFIFPPSDEQLKSGTASVVCLLNNFYPREAKVQWKVDNALQSGNSQESVTEQDSKDSTYSLSSTLTLSKADYEKHKVYACEVTHQGLSSPVTKSFNRGEC
notes: Parent antibody of the Fc variants; also called MS1032LO06-SG1
Kd [1]: 5100 nM | Kd [2]: 17000 nM | Kd [3]: 1800 nM | Kd [4]: 360 nM | Kd [5]: 690 nM | Kd [6]: 1100 nM | Kd [7]: 4600 nM | Kd [8]: 810 nM
